Measurements reported in article PMC4051777, “Characterization of an Alkali- and Halide-Resistant Laccase Expressed in E. coli: CotA from Bacillus clausii” (PLoS ONE, 2014).

How the values were obtained:
purified protein [1] = substrate: COc1cccc(OC)c1O; test: purified protein; format: biochemical, Bacillus subtilis; details: pH 7, O2 as co-substrate, DMP 0-12.5 mM, substrate inhibition at high DMP
purified protein [2] = substrate: COc1cccc(OC)c1O; test: purified protein; format: biochemical, Shouchella clausii; details: pH 7 (implied by context), O2 as co-substrate, DMP 0-12.5 mM, substrate inhibition at high DMP

Row | Protein | Km (purified protein [1]) | Km (purified protein [2])
1 | cotA from B. subtilis (Bacillus subtilis subsp. subtilis str. 168) (protein, full length, 1542-bp PCR product from genomic DNA in pETM13 (p130), E. coli BL21(DE3); no fusions or tailing amino acids) MTLEKFVDALPIPDTLKPVQQSKEKTYYEVTMEECTHQLHRDLPPTRLWGYNGLFPGPTIEVKRNENVYVKWMNNLPSTHFLPIDHTIHHSDSQHEEPEVKTVVHLHGGVTPDDSDGYPEAWFSKDFEQTGPYFKREVYHYPNQQRGAILWYHDHAMALTRLNVYAGLVGAYIIHDPKEKRLKLPSDEYDVPLLITDRTINEDGSLFYPSAPENPSPSLPNPSIVPAFCGETILVNGKVWPYLEVEPRKYRFRVINASNTRTYNLSLDNGGDFIQIGSDGGLLPRSVKLNSFSLAPAERYDIIIDFTAYEGESIILANSAGCGGDVNPETDANIMQFRVTKPLAQKDESRKPKYLASYPSVQHERIQNIRTLKLAGTQDEYGRPVLLLNNKRWHDPVTETPKVGTTEIWSIINPTRGTHPIHLHLVSFRVLDRRPFDIARYQESGELSYTGPAVPPPPSEKGWKDTIQAHAGEVLRIAATFGPYSGRYVWHCHILEHEDYDMMRPMDITDPHK | 340 µM | 
2 | cotA from B. clausii (Shouchella clausii KSM-K16) (protein, full length, codon-optimized gene in pETM13 (p133), E. coli BL21(DE3)) MELEKFVDPMPIMKTAIPKKTSKDGDYYEIEMKEFSQKLHRDLNPTRLWGYDGQFPGPTIEVMRGKPARIKWMNNLPDTHFLPIDRSIHHVAHEPEVRTVVHLHGSETTPASDGYPEAWFTKDFAEVGSFFEQETYEYPNDQRAATLWYHDHAMGITRLNVYAGLSGLYIIRDPREEQLNLPKGEFDIPLLIQDRSFNDDGSLFYPAQPANPAPNLPNPSVLPFFVGDTILVNGKVWPYLQVEPRKYRFRILNGSNSRSYQLALDSEAPFYQIASDGGLLRRTVSLQAFDIRPAERIEAIIDFSKFEGQTITLKNNASTDATADVMQFQVVLPLSGEDTSIIPQNLSYIPSLQQNDVKRIRNLKISGTTDEYGRPLLLLNNKLWSDPVEEKPCLGTTEIWSFVNVTNVPHPMHIHLVQFQLLDHRAFNVELYNENGQIELVGPTIPPKINERGWKDTITAPAGQITRVIARFAPFSGYYVWHCHILEHEDYDMMRPFVVIDPKTEKERR |  | 1020 µM
